Measurements as given in patent US8076094.

Tests used:
GST-H3 1-44 = GST-H3 1-44 (UniProt P68431)
[1] = system: GST control protein [GST: P08515]
[2] = target: histone H3 in nucleosomes purified from HeLa cells (UniProt P68431)
GST-H3 1-15 T11A = GST-H3 1-15 T11A (UniProt P68431)

Row | Substance | phosphorylation in in vitro kinase assay (32P, SDS-PAGE, autoradiography) (GST-H3 1-44) | phosphorylation in in vitro kinase assay (32P, SDS-PAGE, autoradiography) [1] | phosphorylation in in vitro kinase assay, Western blot with α-phosphoH3T11 [2] | phosphorylation in in vitro kinase assay (GST-H3 1-15 T11A)
1 | Myc-PRK1, immunoprecipitated from 293 cell lysates | GST-H3 1-44 is phosphorylated by PRK1 | The GST control protein is not phosphorylated, thus demonstrating specificity |  | 
2 | purified recombinant PRK1 (ProQinase GmbH) |  |  | PRK1 phosphorylates nucleosomes at H3T11 | mutation of threonine 11 to alanine in H3 1-15 (H3 1-15 T11A) abolishes phosphorylation
